T1: CD3
T1 chain: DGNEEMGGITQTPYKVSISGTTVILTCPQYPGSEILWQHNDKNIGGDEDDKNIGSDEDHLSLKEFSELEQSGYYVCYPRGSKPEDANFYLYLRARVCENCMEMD


How the values were obtained:
CTLA4 = molecular target: T2, CTLA4 (UniProt P16410 36-161, limits assumed); assay: Octet biolayer interferometry; antigen immobilized, B-Body as analyte
T2 construct: Immobilized antigen in the Octet assays
Description: In each instance, the antigen is immobilized and the B-Body is the analyte.

CD3 = molecular target: T1, CD3; assay: BLI (Octet), two-fold serial dilution (200-12.5 nM) of the construct

T2 sequence (P16410 36-161 limits assumed): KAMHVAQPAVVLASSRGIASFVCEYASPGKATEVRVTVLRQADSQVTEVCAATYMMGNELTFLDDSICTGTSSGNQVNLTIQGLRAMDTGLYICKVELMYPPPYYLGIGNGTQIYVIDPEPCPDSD

| Binder | binding result (CTLA4) | Kd (CD3) [nM] | koff (CD3) [s⁻¹] | kon (CD3) [M⁻¹ s⁻¹] |
| --- | --- | --- | --- | --- |
| bivalent bispecific B-Body “BC1” (bispecific antibody) chain 1: not shown chain 2: EVQLVESGGGLVQPGGSLRLSCAASGFTFSDYDIHWVRQAPGKGLEWVGDITPYDGTTNYADSVKGRFTISADTSKNTAYLQMNSLRAEDTAVYYCARLVGEIATGFDYWGQGTLVTVSSASPREPQVYTDPPSRDELTKNQVSLTCLVKGFYPSDIAVEWESNGQPENNYKTTPPVLDSDGSFFLYSKLTVDKSRWQQGNVFSCSVMHEALHNHYTQKSLSLSGEC chain 3: not shown chain 4: QVQLVESGGGVVQPGRSLRLDCKASGITFSNSGMHWVRQAPGKGLEWVAVIWYDGSKRYYADSVKGRFTISRDNSKNTLFLQMNSLRAEDTAVYYCATNDDYWGQGTLVTVSSASTKGPSVFPLAPSSKSTSGGTAALGCLVKDYFPEPVTVSWNSGALTSGVHTFPAVLQSSGLYSLSSVVTVPSSSLGTQTYICNVNHKPSNTKVDKKVEPPKSC | no binding | – | – | – |
| non-mutagenized SP34-89 monovalent B-Body (bispecific antibody, V domains shown, VL and VH cloned into one arm of a 1×1 BC1 B-Body; also called SP34-89 VL-WT/SP34-89 VH-WT) VH: EVQLVESGGGLVQPGGSLRLSCAASGFTFNTYAMNWVRQAPGKGLEWVARIRSKYNNYATYYADSVKGRFSISRDDSKNTAYLQMNSLRAEDTAVYYCVRHGNFGNSYVSWFAYWGQGTLVTV VL: QAVVTQEPSLTVSPGGTVTLTCRSSTGAVTTSNYANWVQQKPGQAPRGLIGGTNKRAPWTPARFSGSLLGGKAALTITGAQAEDEADYYCALWYSNLWVFGGGTKLTVL | – | 23 | 0.0071 | 300000 |
